From the Immune Epitope Database (IEDB)

What was measured:
[1] = target: HLA-C*14:02; assay: IEDB peptide-MHC binding, purified MHC/direct/fluorescence; filed as Kd, often an IC50 or EC50 that approximates it; ≥ and ≤ were set here for values at or beyond the usual limits of such assays; conditions: source organism: Mycobacterium tuberculosis H37Rv
[2] = target: HLA-C*05:01; assay: as above
[3] = target: HLA-C*03:03; assay: as above; conditions: source organism: Mycobacterium tuberculosis H37Rv
[4] = target: HLA-C*12:03; assay: as above; conditions: source organism: Leishmania major strain Friedlin
[5] = target: HLA-A*31:01; assay: as above
[6] = target: HLA-B*44:02; assay: as above
[7] = target: HLA-B*15:01; assay: as above
[8] = target: HLA-A*01:01; assay: as above
[9] = target: HLA-A*11:01; assay: as above
[10] = target: HLA-A*02:01; assay: as above
[11] = target: HLA-B*40:01; assay: as above
[12] = target: HLA-B*07:02; assay: as above
[13] = target: HLA-B*08:01; assay: as above
[14] = target: HLA-A*30:01; assay: as above
[15] = target: HLA-B*58:01; assay: as above
[16] = target: HLA-A*69:01; assay: as above
[17] = target: HLA-A*03:01; assay: as above
[18] = target: HLA-B*27:05; assay: as above
[19] = target: HLA-A*26:01; assay: as above
[20] = target: HLA-B*58:01; assay: IEDB peptide-MHC binding, purified MHC/competitive/radioactivity; filed as Kd, often an IC50 or EC50 that approximates it; ≥ and ≤ were set here for values at or beyond the usual limits of such assays
[21] = target: HLA-B*57:01; assay: as above
[22] = target: HLA-B*53:01; assay: as above; conditions: source organism: Dengue virus 3 Martinique/1243/1999
[23] = target: HLA-A*31:01; assay: IEDB peptide-MHC binding, purified MHC/competitive/fluorescence; filed as Kd, often an IC50 or EC50 that approximates it; ≥ and ≤ were set here for values at or beyond the usual limits of such assays; conditions: source organism: Entamoeba dispar SAW760
[24] = target: HLA-B*15:01; assay: as above; conditions: source organism: Entamoeba dispar SAW760
[25] = target: HLA-A*23:01; assay: as above
[26] = target: HLA-A*68:02; assay: as above; conditions: source organism: Entamoeba dispar SAW760
[27] = target: HLA-B*51:01; assay: as above; conditions: source organism: Entamoeba dispar SAW760
[28] = target: HLA-A*02:03; assay: as above; conditions: source organism: Entamoeba dispar SAW760
[29] = target: HLA-B*46:01; assay: as above; conditions: source organism: Entamoeba dispar SAW760
[30] = target: HLA-B*18:01; assay: as above; conditions: source organism: Entamoeba dispar SAW760
[31] = target: HLA-A*24:03; assay: as above; conditions: source organism: Entamoeba dispar SAW760
[32] = target: HLA-B*15:17; assay: as above; conditions: source organism: Entamoeba dispar SAW760
[33] = target: HLA-A*02:19; assay: as above; conditions: source organism: Entamoeba dispar SAW760
[34] = target: HLA-B*27:03; assay: as above; conditions: source organism: Entamoeba dispar SAW760
[35] = target: HLA-A*69:01; assay: as above; conditions: source organism: Entamoeba dispar SAW760
[36] = target: HLA-A*02:12; assay: as above; conditions: source organism: Entamoeba dispar SAW760
[37] = target: HLA-B*39:01; assay: as above; conditions: source organism: Entamoeba dispar SAW760
[38] = target: HLA-B*57:01; assay: as above; conditions: source organism: Entamoeba dispar SAW760
[39] = target: HLA-A*26:01; assay: as above; conditions: source organism: Entamoeba dispar SAW760
[40] = target: HLA-A*24:03; assay: IEDB peptide-MHC binding, purified MHC/direct/fluorescence; filed as Kd, often an IC50 or EC50 that approximates it; ≥ and ≤ were set here for values at or beyond the usual limits of such assays
[41] = target: HLA-A*32:01; assay: IEDB peptide-MHC binding, purified MHC/competitive/radioactivity; filed as Kd, often an IC50 or EC50 that approximates it; ≥ and ≤ were set here for values at or beyond the usual limits of such assays; conditions: source organism: Dengue virus 1 Brazil/97-11/1997
[42] = target: HLA-B*35:01; assay: IEDB peptide-MHC binding, purified MHC/direct/fluorescence; filed as Kd, often an IC50 or EC50 that approximates it; ≥ and ≤ were set here for values at or beyond the usual limits of such assays
[43] = source organism: Vibrio parahaemolyticus
[44] = source organism: Dengue virus 4 Philippines/H241/1956
[45] = source organism: Dengue virus 3 Martinique/1243/1999
[46] = source organism: Escherichia coli
[47] = source organism: Dengue virus 2 Jamaica/1409/1983
[48] = source organism: Dengue virus 1 Brazil/97-11/1997
[49] = source organism: Coxiella burnetii
[50] = source organism: Salmonella enterica subsp. enterica serovar Typhi
[51] = source organism: Salmonella enterica

**Q.** Which results are given for AAAANTTAL?
**A.** Kd [1]: 0.607 µM; Kd ([2]; source organism: Mycobacterium tuberculosis H37Rv): 1.68 µM; Kd [3]: ≤ 0.001 µM

**Q.** AAVDNAVVV was tested. Which Kd [4] did it give?
**A.** ≤ 0.001 µM

**Q.** How did the Kd [5, 43] turn out when DQFSIPIRY was run?
**A.** ≥ 20 µM

**Q.** What about the Kd [6, 43] of the same sequence?
**A.** ≥ 20 µM

**Q.** And the Kd [7, 43]?
**A.** 0.579 µM

**Q.** And the Kd [8, 43]?
**A.** ≥ 20 µM

**Q.** What about the Kd [9, 43] of the same sequence?
**A.** ≥ 20 µM

**Q.** And the Kd [10, 43]?
**A.** ≥ 20 µM

**Q.** And the Kd [11, 43]?
**A.** ≥ 20 µM

**Q.** And the Kd [12, 43]?
**A.** ≥ 20 µM

**Q.** What about the Kd [13, 43] of the same sequence?
**A.** ≥ 20 µM

**Q.** What about the Kd [14, 43] of the same sequence?
**A.** 8.36 µM

**Q.** And the Kd [15, 43]?
**A.** ≥ 20 µM

**Q.** And the Kd [16, 43]?
**A.** ≥ 20 µM

**Q.** What about the Kd [17, 43] of the same sequence?
**A.** ≥ 20 µM

**Q.** What about the Kd [18, 43] of the same sequence?
**A.** ≥ 20 µM

**Q.** And the Kd [19, 43]?
**A.** ≥ 20 µM

**Q.** What does the source list for EASISNITTA?
**A.** Kd [20, 44]: 1.63 µM; Kd [21, 44]: ≥ 23.5 µM

**Q.** How did the Kd [22] turn out when LATAIAGAW was run?
**A.** 0.0199 µM

**Q.** And the Kd [20, 45]?
**A.** 0.0056 µM

**Q.** What about the Kd [21, 45] of the same sequence?
**A.** 0.00719 µM

**Q.** Which Kd ([2]; source organism: Bifidobacterium longum DJO10A) does the source give for LLDEPTNNL here?
**A.** 0.007 µM

**Q.** What about the Kd ([16]; source organism: Burkholderia mallei) of the same sequence?
**A.** 0.0883 µM

**Q.** For LMTHTWHAK, which Kd [23] is on record?
**A.** 0.119 µM

**Q.** What about the Kd [24] of the same sequence?
**A.** ≥ 20 µM

**Q.** And the Kd ([25]; source organism: Entamoeba dispar SAW760)?
**A.** ≥ 20 µM

**Q.** What about the Kd [26] of the same sequence?
**A.** ≥ 20 µM

**Q.** And the Kd [27]?
**A.** ≥ 20 µM

**Q.** And the Kd [28]?
**A.** ≥ 20 µM

**Q.** And the Kd [29]?
**A.** ≥ 20 µM

**Q.** And the Kd [30]?
**A.** ≥ 20 µM

**Q.** And the Kd [31]?
**A.** ≥ 20 µM

**Q.** What about the Kd [32] of the same sequence?
**A.** ≥ 20 µM

**Q.** And the Kd [33]?
**A.** ≥ 20 µM

**Q.** What about the Kd [34] of the same sequence?
**A.** ≥ 20 µM

**Q.** What about the Kd [35] of the same sequence?
**A.** ≥ 20 µM

**Q.** What about the Kd [36] of the same sequence?
**A.** ≥ 20 µM

**Q.** What about the Kd [37] of the same sequence?
**A.** ≥ 20 µM

**Q.** What about the Kd [38] of the same sequence?
**A.** ≥ 20 µM

**Q.** What about the Kd [39] of the same sequence?
**A.** ≥ 20 µM

**Q.** Which Kd ([25]; source organism: Francisella tularensis subsp. tularensis FSC198) does the source give for MQLAKEHNF here?
**A.** 0.0291 µM

**Q.** NMERKLNLS was tested. Which Kd [5, 46] did it give?
**A.** ≥ 20 µM

**Q.** And the Kd [7, 46]?
**A.** ≥ 20 µM

**Q.** And the Kd [8, 46]?
**A.** ≥ 20 µM

**Q.** And the Kd [9, 46]?
**A.** ≥ 20 µM

**Q.** What about the Kd [10, 46] of the same sequence?
**A.** ≥ 20 µM

**Q.** What about the Kd [11, 46] of the same sequence?
**A.** ≥ 20 µM

**Q.** And the Kd [13, 46]?
**A.** ≥ 20 µM

**Q.** What about the Kd [40, 46] of the same sequence?
**A.** ≥ 20 µM

**Q.** What about the Kd [14, 46] of the same sequence?
**A.** ≥ 20 µM

**Q.** And the Kd [15, 46]?
**A.** ≥ 20 µM

**Q.** And the Kd [16, 46]?
**A.** ≥ 20 µM

**Q.** What about the Kd [17, 46] of the same sequence?
**A.** ≥ 20 µM

**Q.** And the Kd [18, 46]?
**A.** ≥ 20 µM

**Q.** What about the Kd [19, 46] of the same sequence?
**A.** ≥ 20 µM

**Q.** RSWNSGHEW was tested. Which Kd [20, 47] did it give?
**A.** 0.00105 µM

**Q.** What about the Kd [21, 47] of the same sequence?
**A.** 0.00205 µM

**Q.** Which results are given for RSWNSGYDW?
**A.** Kd [41]: 0.0543 µM; Kd [20, 48]: 0.0135 µM; Kd [21, 48]: ≤ 0.001 µM

**Q.** For VMKRNFIDF, which Kd [5, 49] is on record?
**A.** ≥ 20 µM

**Q.** And the Kd [6, 49]?
**A.** ≥ 20 µM

**Q.** What about the Kd [7, 49] of the same sequence?
**A.** 0.0844 µM

**Q.** What about the Kd [8, 49] of the same sequence?
**A.** ≥ 20 µM

**Q.** And the Kd [10, 49]?
**A.** ≥ 20 µM

**Q.** What about the Kd [11, 49] of the same sequence?
**A.** ≥ 20 µM

**Q.** What about the Kd [13, 49] of the same sequence?
**A.** 2.25 µM

**Q.** And the Kd [40, 49]?
**A.** 4.91 µM

**Q.** What about the Kd [42, 49] of the same sequence?
**A.** 1.13 µM

**Q.** What about the Kd [14, 49] of the same sequence?
**A.** 3.63 µM

**Q.** And the Kd [15, 49]?
**A.** ≥ 20 µM

**Q.** What about the Kd [16, 49] of the same sequence?
**A.** ≥ 20 µM

**Q.** And the Kd [17, 49]?
**A.** ≥ 20 µM

**Q.** What about the Kd [18, 49] of the same sequence?
**A.** ≥ 20 µM

**Q.** And the Kd [19, 49]?
**A.** ≥ 20 µM

**Q.** For VPQTDAGVT, which Kd [5, 50] is on record?
**A.** 0.592 µM

**Q.** And the Kd [6, 51]?
**A.** ≥ 20 µM

**Q.** And the Kd [7, 51]?
**A.** ≥ 20 µM

**Q.** And the Kd [8, 51]?
**A.** ≥ 20 µM

**Q.** And the Kd [9, 50]?
**A.** 2.9 µM

**Q.** And the Kd [10, 51]?
**A.** ≥ 20 µM

**Q.** What about the Kd [11, 51] of the same sequence?
**A.** ≥ 20 µM

**Q.** And the Kd [12, 50]?
**A.** 1.89 µM

**Q.** And the Kd [13, 51]?
**A.** ≥ 20 µM

**Q.** What about the Kd [40, 50] of the same sequence?
**A.** 1.27 µM

**Q.** And the Kd [42, 50]?
**A.** 0.888 µM

**Q.** And the Kd [14, 50]?
**A.** 4.4 µM

**Q.** And the Kd [15, 50]?
**A.** ≥ 10 µM

**Q.** And the Kd [16, 51]?
**A.** ≥ 20 µM

**Q.** And the Kd [17, 51]?
**A.** ≥ 20 µM

**Q.** What about the Kd [18, 51] of the same sequence?
**A.** ≥ 20 µM

**Q.** And the Kd [19, 51]?
**A.** ≥ 20 µM
